# Laboratory results as given in PMC8017934.
# Values joined by “and” are separate entries in the source; they are usually repeats but may differ in a detail not shown here. Identical values can stand only once. Like-named read-outs stand apart in the source and are kept apart here.
# Key:
# [1] = tested on: Bat-Hp-CoV NSP1;human 40S ribosomal subunit (Bat-Hp-CoV;Homo sapiens); test: single-molecule fluorescence (ZMW)
# [2] = biological target: MERS-CoV NSP1;human 40S ribosomal subunit (MERS-CoV;Homo sapiens) (UniProt K9N7C7); test: single-molecule fluorescence (ZMW)
# [3] = biological target: SARS-CoV NSP1;human 40S ribosomal subunit (SARS-CoV;Homo sapiens) (UniProt P0C6X7); test: single-molecule fluorescence (ZMW)
# [4] = biological target: SARS-CoV-2 NSP1 (ybbR-NSP1) WT;human 40S ribosomal subunit (SARS-CoV-2;Homo sapiens) (UniProt P0DTD1); test: single-molecule fluorescence (ZMW)
# [5] = biological target: SARS-CoV-2 NSP1 (ybbR-NSP1) WT;human 40S ribosomal subunit;eIF1, eIF1A, eIF5, eIF3 lacking 3j, TC-GMPPNP (eIF2, Met-tRNAi) (SARS-CoV-2;Homo sapiens;Homo sapiens) (UniProt P0DTD1); test: single-molecule fluorescence (ZMW)
# [6] = biological target: SARS-CoV-2 NSP1 (ybbR-NSP1) WT;human 40S ribosomal subunit;eIF1, eIF1A, eIF5, TC-GMPPNP (eIF2, Met-tRNAi) (SARS-CoV-2;Homo sapiens;Homo sapiens) (UniProt P0DTD1); test: single-molecule fluorescence (ZMW)
# [7] = tested on: human 40S ribosomal subunit;eIF1, eIF1A, eIF5, TC-GMPPNP (eIF2, Met-tRNAi) (Homo sapiens;Homo sapiens); test: single-molecule fluorescence (ZMW)
# [8] = biological target: human 40S ribosomal subunit with the ybbR tag on RACK1, biotinylated or Cy5-labelled (human) (UniProt P63244)
# [9] = biological target: eIF1–40S(biotin) subunit complex (human) (UniProt P41567)
# [10] = biological target: human 40S ribosomal subunit with the ybbR tag on RACK1, biotinylated or Cy5-labelled (human) (UniProt P63244); remark: listed apart in the source
# [11] = biological target: human 40S ribosomal subunit with the ybbR tag on RACK1, biotinylated or Cy5-labelled (human) (UniProt P63244); remark: listed apart in the source
# [12] = biological target: human 40S ribosomal subunit with the ybbR tag on RACK1, biotinylated or Cy5-labelled (human) (UniProt P63244); remark: listed apart in the source
# [13] = biological target: human 40S ribosomal subunit with the ybbR tag on uS19, Cy3-labelled (human (endogenous in HEK293T)) (UniProt P62841)
# [14] = biological target: human 40S ribosomal subunit with the ybbR tag on RACK1, biotinylated or Cy5-labelled (human) (UniProt P63244); remark: listed apart in the source
# [15] = biological target: human 80S ribosome assembled on the CrPV IRES from 40S-ybbR-Cy3 and 60S-ybbR-Cy5 subunits (human (endogenous in HEK293T)) (UniProt P62841)
# UniProt P41567, sequence (P41567 whole entry, looked up, tested part not stated, one chain of several): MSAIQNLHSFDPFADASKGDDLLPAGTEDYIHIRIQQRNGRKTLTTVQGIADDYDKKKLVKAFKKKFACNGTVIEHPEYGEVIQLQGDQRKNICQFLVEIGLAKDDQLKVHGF
substance,measurement,setting,value
GGCCAGCCCCCUGAUGGGGGCGACACUCCACCAUGAAUCACUCCCCUGUGAGGAACUACUGUCUUCACGCAGAAAGCGUCUAGCCAUGGCGUUAGUAUGAGUGUCGUGCAGCCUCCAGGACCCCCCCUCCCGGGAGAGCCAUAGUGGUCUGCGGAACCGGUGAGUACACCGGAAUUGCCAGGACGACCGGGUCCUUUCUUGGAUAAACCCGCUCAAUGCCUGGAGAUUUGGGCGUGCCCCCGCAAGACUGCUAGCCGAGUAGUGUUGGGUCGCGAAAGGCCUUGUGGUACUGCCUGAUAGGGUGCUUGCGAGUGCCCCGGGAGGUCUCGUAGACCGUGCACCAUG [HCV+0],Kd,[1],< 1 nM
same,binding signal (% complexes bound),[2],11
same,Kd,[3],< 2 nM
same,Kd,[4],< 1 nM
same,binding signal (% 40S events with NSP1),[4],57
GGCCAGCCCCCUGAUGGGGGCGACACUCCACCAUGAAUCACUCCCCUGUGAGGAACUACUGUCUUCACGCAGAAAGCGUCUAGCCAUGGCGUUAGUAUGAGUGUCGUGCAGCCUCCAGGACCCCCCCUCCCGGGAGAGCCAUAGUGGUCUGCGGAACCGGUGAGUACACCGGAAUUGCCAGGACGACCGGGUCCUUUCUUGGAUAAACCCGCUCAAUGCCUGGAGAUUUGGGCGUGCCCCCGCAAGACUGCUAGCCGAGUAGUGUUGGGUCGCGAAAGGCCUUGUGGUACUGCCUGAUAGGGUGCUUGCGAGUGCCCCGGGAGGUCUCGUAGACCGUGCACCAUGAGCACG [HCV+6],binding signal (% complexes bound),[4],81
GGCCAGCCCCCUGAUGGGGGCGACACUCCACCAUGAAUCACUCCCCUGUGAGGAACUACUGUCUUCACGCAGAAAGCGUCUAGCCAUGGCGUUAGUAUGAGUGUCGUGCAGCCUCCAGGACCCCCCCUCCCGGGAGAGCCAUAGUGGUCUGCGGAACCGGUGAGUACACCGGAAUUGCCAGGACGACCGGGUCCUUUCUUGGAUAAACCCGCUCAAUGCCUGGAGAUUUGGGCGUGCCCCCGCAAGACUGCUAGCCGAGUAGUGUUGGGUCGCGAAAGGCCUUGUGGUACUGCCUGAUAGGGUGCUUGCGAGUGCCCCGGGAGGUCUCGUAGACCGUGCACCAUGAGCACGAAUCCU [HCV+12],binding signal,[4],0.044 s-1 (kobs)
same,binding signal,[5],0.013 s-1 (kobs)
GGCCAGCCCCCUGAUGGGGGCGACACUCCACCAUGAAUCACUCCCCUGUGAGGAACUACUGUCUUCACGCAGAAAGCGUCUAGCCAUGGCGUUAGUAUGAGUGUCGUGCAGCCUCCAGGACCCCCCCUCCCGGGAGAGCCAUAGUGGUCUGCGGAACCGGUGAGUACACCGGAAUUGCCAGGACGACCGGGUCCUUUCUUGGAUAAACCCGCUCAAUGCCUGGAGAUUUGGGCGUGCCCCCGCAAGACUGCUAGCCGAGUAGUGUUGGGUCGCGAAAGGCCUUGUGGUACUGCCUGAUAGGGUGCUUGCGAGUGCCCCGGGAGGUCUCGUAGACCGUGCACCAUGAGCACGAAUCCUAAACCUCAAAGAAAAACCGCCAGAACCAUGGAAGAC [HCV+48],Kd,[4],> 2000 nM
same,binding signal (% 40S events with NSP1),[4],60
GGUCUCUCUCUCUCUCUCUAUGUUCAAAUAAUCUCUCUCUCUCUCUCUCUCUCUCUCUCUCUC [M+41],binding signal (% complexes bound),[4],16
same,binding signal,[6],4 s-1 (koff)
same,binding signal,[7],0.0038 s-1 (koff)
"SARS-CoV NSP1 with an N-terminal ybbR tag, Cy3-labelled (from UniProt P0C6X7 1-180) (natural protein)",Kd,[8],< 2 nM
same,fraction of IRES–40S complexes bound at least once by NSP1 (≥∼5 s),[8],62%
same,koff,[8],< 0.006 s⁻¹
"SARS-CoV-2 NSP1 with an N-terminal ybbR tag, fluorescently labelled (from UniProt P0DTD1 1-180) (natural protein)",Kd,[9],< 10 nM
same,koff,[9],0.0042 s⁻¹
same,kon,[9],300000 M⁻¹ s⁻¹
same,Kd,[10],< 1 nM
same,fraction of IRES–40S complexes bound at least once by NSP1 (≥∼5 s),[10],77% and 60%
same,koff,[10],< 0.0043 s⁻¹
same,Kd,[11],> 3000 nM
same,koff,[11],0.25 s⁻¹
same,fraction of mRNA–40S complexes bound at least once by NSP1 (≥∼5 s),[12],16%
same,kobs (apparent association rate),[12],< 0.002 s⁻¹
same,time NSP1 remained bound after association,[13],120 s
same,kon,[14],3e+06 to 4e+06 M⁻¹ s⁻¹
same,fraction of traces with an NSP1 binding event,[15],30%
